Assay: yeast display, Sf9 membrane polyspecificity reagent, FACS + sequencing; frameworks hold sequencing errors
Summary of the method: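 Galactose-induced (36–48 hours) yeast carrying a synthetic nanobody display library were exposed to 10% biotinylated, detergent-solubilized Sf9 membrane reagent at 4 °C for 1 hour. FACS followed streptavidin microbead enrichment, using low and high (top ~1%) gates for expression (anti-HA) and reagent binding (streptavidin). Colony PCR, MiSeq 2 × 250 sequencing and CDR-length filtering followed. Labels for polyreactivity reflect the gate of origin.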

| Sequence | polyreactivity (PSR sort gate) |
| --- | --- |
| QVQLVESGGGLVQAGGSLRLSCAASGRIFWSYAMGWYRPAPGKERELVAAIRSGGTTDYADSVKGRFTISRDNAKNTVYLQMNSLKPEDTAVYYCNREYRGAINYIYYYWGQGTQVTVSS | low polyreactivity |
| QVQLEESGGGLVQAGGSLRLSCAASGSTLKLNAMGWYRQAPGKERELVASINFSGGSTYYAYSVKGRFTISRDNAKNTVYLQMNSLKPEDTAVYYCAAEASSYSRSVRWRYVYYYWGQGTQVTVSS | high polyreactivity |
| QVQHVESGGGLVQAGGSHRLSCAASGRIFPWNTMGRYRQAPGKERELVAGITSGGSTNYADSVKGRFTISRDNAKNTVYLQMKSLKPEDTAVYYCNRDSVGYDYWGQGTQVTVSS | low polyreactivity |
| QVQLVESGGGLVQEGGSLRLSCAASGSILYYYAMGWYRQAPGKERELVATITRRGGSTYYADSVKGRFTISRDNAKNTVYLQMNSLKPEDTAVYFCAARSRYGELYYWGQGTQVTVSS | high polyreactivity |
| QVQLVESGGGLVQAGGSLRLSCAASGSIFFGYAMGWYRQAPGKERELVAGISSNGGTTYYADSVKGRFTISRDHANNTVNLQMNSQKPEDTAVYDCATQYYARGYLYDYWGQGTQVTVSS | low polyreactivity |
| QVQLVESGGGLVQAGGSLRLSCAASGRTFAYYAMGWYKQAPGKERELVAAISWSGGSTYYADSVKGRFTISRDNAKNTVYLQMNSLKPEDTAVYYCAARRYGVPPTYDYWGQGTQVTVSW | high polyreactivity |
| QVQLVESGGGLVQAGGSLRLSCAASGRIFYKYVMGGYRQAPGKARVLVAAINRSGGTTYYADSVKGRFTISRDNAKKTVYLQMNSQKPEDTAVYYCNATLPAYWPYYYYQGGDDYWGQGTQVTVSS | low polyreactivity |
| QVQLVESGGGLVQAGGSLRLSCAASGFTFSINTMGWYRQAPGKERQFVAGISRSGGSTYYADSVKWRFTISRDNAKNTVYLQMNSLKPEDTAVYYCAAGGPYWSRYEYWGQGNQVTVSS | high polyreactivity |
| QVQLVESGGGLVQAGGSLRLSCAASGGTFSFYTMGWYRQGPGKERELVAAIDSTGRTNYADSVKGRFTISRENAKNTVYLLMNSLKPDDTAVYYCSAGPPRADYDYWGQGTQVTVSS | low polyreactivity |
| QVQLVESGVGFVQAGGSLRLSCAASGSTFGYYDMGWYRQAPGKERELVASIRSSGSTYYADSVKGRFTISRDNPKHTVYFQMNSLKPEDTAVYYCNTASLYHRWQGSWPKYDYWGQGTQVTVSS | high polyreactivity |
| QVQLVESGGGLVQAGGSLRLSCAASGRTFYYNTMGWYRQAPGKERELVAALSSRGGTTSYADSVKGRFTISRDNAKNSVYLQMNSLKPEDTAVYYCNAETYRRGSYDYWGQGTQVTVSS | high polyreactivity |
| QVQLVESGGGLVQAGGSLRLRCAASARIYDTYAMGWYRQAPGKERELVASISIDGSTYYADSVKGRFTISRDNAKNTVYLQMNSLKREDTAVYYCNADGRYYTVRFEYWGQGTQVTVSS | low polyreactivity |
| QVQLVESGGGLVHAGGSLRLSCAASGLIFTNAMGWYRQAPGKEREFVAAINSSGGSTYADSVKGRFTISRDNAKNTVYLQMNSLKPEDTAVYFCAARVIYLYEYWGQGTQVTVSS | low polyreactivity |
| QVQLVESGGGLVQAGGSLRLSCAASGGTFGVNTMGWYSHAPGKERELVAAISNRGVSTYYADSVKGRFTISRDNAKNTVYLQMNSQKPEDTAVYYCASTNSYVYSITLDRYDYWGQGTQVTVSS | low polyreactivity |
| QVQLVESGGGLVQAGGSLRLSCAASGRTFFPYAMGWYRQAPGKEREFVAAITKSDYSTYYADSVKGRFTISRDNAKNTVYLQKNSLKPEDNAVYYCNAGDTQIRFYYWGQGTQVTVSS | low polyreactivity |
| QVQLVESGGGLVQAGGSLRLSCAASGFILDTYAMGWYRQAPGKERELVAAISASGSSTYYADSVKGRFTISRDNAKNTVYLQMNSLKPEDTAVYYCAAKDTGYGYGFPRLDYWGQGTQVTVSS | low polyreactivity |
| QVQLVESGGGLVQAGGSLRLSCAASGSTFVHYAMGWYRQAPGKERELVAAINDGGSTHYADSVKGRFTISRDNAKNTVYLQMHSLKPEDTAVYYCAAEYVWYRYPDYWGAYDYWGQGTQVTVSS | low polyreactivity |
| QVQLVESGGGLVQAGGSLRLSCAASGLTFGYYAMGWYRQAPGKERELVAAITGGGGSTYYADSVKGRFTISRDNAKNTVYLQMNSLKPEDTAVYYCAKAVYFRRKGHWYQMEYWGQGTQVTVSS | low polyreactivity |
| QVQLVESGGGLVQAGGSHRLSCAASGRTFYINAMGWYRQAPGKERELVAAISIRGGGTYYADSVKGRFTISRDNAKNTVYLQMNSLKPEDTAVYYCAAEYTEGYTHDYWGQGTQVTVSS | low polyreactivity |
| QVQLVESGGGLVQEGGSLHLICAASGRIFGKYPMGWYRQAPGKEREFVAAIRSSDGNTYYADSVKGRFTISRDNAKNTVYLQMNSLKPDDTAVYYCNAGRVTRRDTFDYWGQGTQVTVSS | high polyreactivity |
| QVQLVESGGGLVQAGGSLRLSCAASGSTFSDNAMGGYRQAAGKERELVAAISWTGGSTYADSVKGRFTISRDNAKNTVYLQMNRLKPEDTAVYYCAAGGDFDGNYWGQGTQVTVSS | low polyreactivity |
| HVQLVESGGGLVQAGGSLRLTCAASGFSYGYYAMGWYRQAPGKEWELVATISSGDNTYYADSVKGRFTSSRDNAKNTVYLQMNSLKPEDTAVYYCAARYPHYFVRGGYWGQGTQVTVSS | high polyreactivity |

Source: the nanobody polyreactivity screen of Harvey et al. (2022)
